Columns and labels:
[1] = biological target: FITC tagged AAV Po1 capsid bipartite NLS peptide (residues 119-158) (porcine adeno-associated virus, strain Po1); assay: fluorescence polarisation
[2] = biological target: FITC tagged AAV Po1 capsid monopartite NLS peptide (residues 143-165) (porcine adeno-associated virus, strain Po1); assay: fluorescence polarisation

Substance	Kd [1] [nM]	Kd [2] [nM]
Human importin α1 lacking the IBB domain (hImpα1DIBB) (domain or fragment)	0.382	556
Human importin α5 lacking the IBB domain (hImp5DIBB) (domain or fragment)	0.14	144
Human importin α3 lacking the IBB domain (hImpα3DIBB) (domain or fragment)	0.0455	3480
Human importin α7 lacking the IBB domain (hImpα7DIBB) (domain or fragment)	0.29	294

Source: article PMC9964314
